Reference: US20220251236A1 (Boehringer Ingelheim, published 2022)

Target: T1, Human CD3 E+G HuFc-6xHis (human)
T1 construct: also called hu CD3εγ-Fc
Assay: SPR (ProteOn XPR36), HuCD3E_HuCD3G-Fc amine-coupled, bispecific as analyte, Example 4B
Procedure: The binding affinity of purified DLL3/CD3 bispecific constructs for recombinant human DLL3-ECD and Fc-fusion protein of human CD3 εγ subunits was determined by Surface Plasmon Resonance (SPR), using a ProteOn XPR36 instrument (Bio-Rad).
For binding kinetic determination to CD3, HuCD3E_HuCD3G-Fc (dissolved in pH 4.5 acetate) was immobilized directly onto the sensor surface through amine coupling for 360 sec at a flowrate of 30 μl/min vertically. The baseline was stabilized by injecting PBS-T-EDTA for 60 sec at a flowrate of 30 μl/min horizontally. The analytes (all anti-DLL3/CD3 molecules) were injected horizontally over the captured antibody for 600 sec at a flowrate of 30 μl/min and a dissociation for 1800 sec.

T1 sequence (chain, as listed by the source limits assumed): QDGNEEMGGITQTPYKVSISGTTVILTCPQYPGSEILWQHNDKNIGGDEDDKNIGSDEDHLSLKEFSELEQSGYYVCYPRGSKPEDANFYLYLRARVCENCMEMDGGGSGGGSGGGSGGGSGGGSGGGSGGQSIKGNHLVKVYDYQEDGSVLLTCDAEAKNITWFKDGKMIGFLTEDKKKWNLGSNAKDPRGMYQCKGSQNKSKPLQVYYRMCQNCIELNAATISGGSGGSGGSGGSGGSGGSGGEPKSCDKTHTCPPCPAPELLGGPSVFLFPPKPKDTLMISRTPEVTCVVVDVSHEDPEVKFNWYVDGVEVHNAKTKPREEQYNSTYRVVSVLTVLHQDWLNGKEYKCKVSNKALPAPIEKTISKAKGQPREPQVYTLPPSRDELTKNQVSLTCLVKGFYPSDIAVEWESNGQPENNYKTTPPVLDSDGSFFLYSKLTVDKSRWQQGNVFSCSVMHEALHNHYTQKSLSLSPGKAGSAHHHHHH

B1: DLL3#1/CD3#1 (bispecific antibody, human IgG1, kappa, lambda, L234A L235A)
chain 1: EIVLTQSPGTLSLSPGERATLSCRASQSVSSNFLVWYQQKPGQAPRPLIYGASTRASGIPDRFSGSGSGADFTLTISRLEPEDFALYYCQQYGDSPYTFGQGTTLEIKRTVAAPSVFIFPPSDEQLKSGTASVVCLLNNFYPREAKVQWKVDNALQSGNSQESVTEQDSKDSTYSLSSTLTLSKADYEKHKVYACEVTHQGLSSPVTKSFNRGECGGGGSEGKSSGSGSESKSTEGKSSGSGSESKSTGGGGSQVQLVQSGAEVKKPGASVKVSCKASGNTFTNYYMHWVRQAPGPGLEWMGIIDPSVGSKSYAQKFLGRVTIARDTSTSTVFLDLYSLRSEDTAVYFCARAGKRFGESYFDYWGQGTLVTVSSASTKGPSVFPLAPSSKSTSGGTAALGCLVKDYFPEPVTVSWNSGALTSGVHTFPAVLQSSGLYSLSSVVTVPSSSLGTQTYICNVNHKPSNTKVDKRVEPKSCDKTHTCPPCPAPEAAGGPSVFLFPPKPKDTLMISRTPEVTCVVVDVSHEDPEVKFNWYVDGVEVHNAKTKPREEQYNSTYRVVSVLTVLHQDWLNGKEYKCKVSNKALPAPIEKTISKAKGQPREPQVYTLPPSREEMTKNQVSLWCLVKGFYPSDIAVEWESNGQPENNYKTTPPVLDSDGSFFLYSKLTVDKSRWQQGNVFSCSVMHEALHNHYTQKSLSLSPG
chain 2: EAVVTQEPSLTVSPGGTVTLTCRSSTGAVTTSNYANWVQEKPGQLPRGLIGGTNKRAPWVPARFSGSLLGGKAALTLSGAQPEDEAEYFCALWYSNLWVFGGGTKLTVLGQPKAAPSVTLFPPSSEELQANKATLVCLISDFYPGAVKVAWKADGSPVNTGVETTTPSKQSNNKYAASSYLSLTPEQWKSHRSYSCQVTHEGSTVEKTVAPAECSGGGGSEGKSSGSGSESKSTEGKSSGSGSESKSTGGGGSEVQLVESGGGLVQPGGSLKLSCAASGFTFNTYAMNWVRQAPGKGLEWVARIRSKYNNYATYYADSVKDRFTISRDDSKNTAYLQMNNLKTEDTAVYYCVRHGNFGNSYVSWFAYWGQGTLVTVSAASTKGPSVFPLAPSSKSTSGGTAALGCLVKDYFPEPVTVSWNSGALTSGVHTFPAVLQSSGLYSLSSVVTVPSSSLGTQTYICNVNHKPSNTKVDKRVEPKSCDKTHTCPPCPAPEAAGGPSVFLFPPKPKDTLMISRTPEVTCVVVDVSHEDPEVKFNWYVDGVEVHNAKTKPREEQYNSTYRVVSVLTVLHQDWLNGKEYKCKVSNKALPAPIEKTISKAKGQPREPQVYTLPPSREEMTKNQVSLSCAVKGFYPSDIAVEWESNGQPENNYKTTPPVLDSDGSFFLVSKLTVDKSRWQQGNVFSCSVMHEALHNRFTQKSLSLSPG
Kd: 2 nM

B2: DLL3#7/CD3#1 (bispecific antibody, human IgG1, kappa, lambda, L234A L235A)
chain 1: EIVLTQSPDTLSLSPGERATLSCRASQSVNSNFLAWYQQKPGQTPRLLIFGTSSRATGIPDRFSGSGSGTDFTLTISRLEPEDFAVYYCQQYGSSPWTFGQGTKVEIRRTVAAPSVFIFPPSDEQLKSGTASVVCLLNNFYPREAKVQWKVDNALQSGNSQESVTEQDSKDSTYSLSSTLTLSKADYEKHKVYACEVTHQGLSSPVTKSFNRGECGGGGSEGKSSGSGSESKSTEGKSSGSGSESKSTGGGGSQVQLVESGGGVVQPGRSLRLSCAASGFTFSSYGMFWVRQAPGKGLEWVAVIWLDGDDEDYVDSVKGRFTISRDDSKNTLYLQMNSLRVDDTAIYYCARVLDYWGQGTLVTVSSASTKGPSVFPLAPSSKSTSGGTAALGCLVKDYFPEPVTVSWNSGALTSGVHTFPAVLQSSGLYSLSSVVTVPSSSLGTQTYICNVNHKPSNTKVDKRVEPKSCDKTHTCPPCPAPEAAGGPSVFLFPPKPKDTLMISRTPEVTCVVVDVSHEDPEVKFNWYVDGVEVHNAKTKPREEQYNSTYRVVSVLTVLHQDWLNGKEYKCKVSNKALPAPIEKTISKAKGQPREPQVYTLPPSREEMTKNQVSLWCLVKGFYPSDIAVEWESNGQPENNYKTTPPVLDSDGSFFLYSKLTVDKSRWQQGNVFSCSVMHEALHNHYTQKSLSLSPG
chain 2: B1 chain 2
Kd: 1 nM
